According to patent US20250197513A1 (University of Texas, published 2025):

T1: recombinant OSMR protein (Sino Biologicals, 11226-H08H), extracellular domain of OSMR (UniProt Q99650 28-740)
T1 construct: extracellular domain; also called OSMR antigen
T1 sequence (looked up): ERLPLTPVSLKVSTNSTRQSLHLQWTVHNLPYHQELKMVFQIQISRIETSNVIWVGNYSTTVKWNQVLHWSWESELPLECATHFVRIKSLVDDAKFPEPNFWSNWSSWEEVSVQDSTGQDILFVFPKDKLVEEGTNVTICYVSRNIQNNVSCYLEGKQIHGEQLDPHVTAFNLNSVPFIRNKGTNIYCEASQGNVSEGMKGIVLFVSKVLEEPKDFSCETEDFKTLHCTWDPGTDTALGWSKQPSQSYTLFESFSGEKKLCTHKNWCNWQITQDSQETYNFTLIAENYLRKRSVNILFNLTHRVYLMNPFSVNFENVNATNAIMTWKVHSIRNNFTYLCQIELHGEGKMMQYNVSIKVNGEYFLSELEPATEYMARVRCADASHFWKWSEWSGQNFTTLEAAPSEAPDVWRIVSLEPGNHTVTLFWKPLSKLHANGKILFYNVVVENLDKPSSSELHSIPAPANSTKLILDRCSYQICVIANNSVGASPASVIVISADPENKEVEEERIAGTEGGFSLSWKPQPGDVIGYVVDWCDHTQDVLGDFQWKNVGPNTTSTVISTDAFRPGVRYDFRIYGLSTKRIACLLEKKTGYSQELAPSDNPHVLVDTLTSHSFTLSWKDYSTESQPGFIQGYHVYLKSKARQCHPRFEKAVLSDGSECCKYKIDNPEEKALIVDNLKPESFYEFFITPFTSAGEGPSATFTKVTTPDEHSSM

T2: cell surface human OSMR protein (as used in the ELISA for EC50) (human, UniProt Q99650 28-739, limits assumed)
T2 sequence (looked up): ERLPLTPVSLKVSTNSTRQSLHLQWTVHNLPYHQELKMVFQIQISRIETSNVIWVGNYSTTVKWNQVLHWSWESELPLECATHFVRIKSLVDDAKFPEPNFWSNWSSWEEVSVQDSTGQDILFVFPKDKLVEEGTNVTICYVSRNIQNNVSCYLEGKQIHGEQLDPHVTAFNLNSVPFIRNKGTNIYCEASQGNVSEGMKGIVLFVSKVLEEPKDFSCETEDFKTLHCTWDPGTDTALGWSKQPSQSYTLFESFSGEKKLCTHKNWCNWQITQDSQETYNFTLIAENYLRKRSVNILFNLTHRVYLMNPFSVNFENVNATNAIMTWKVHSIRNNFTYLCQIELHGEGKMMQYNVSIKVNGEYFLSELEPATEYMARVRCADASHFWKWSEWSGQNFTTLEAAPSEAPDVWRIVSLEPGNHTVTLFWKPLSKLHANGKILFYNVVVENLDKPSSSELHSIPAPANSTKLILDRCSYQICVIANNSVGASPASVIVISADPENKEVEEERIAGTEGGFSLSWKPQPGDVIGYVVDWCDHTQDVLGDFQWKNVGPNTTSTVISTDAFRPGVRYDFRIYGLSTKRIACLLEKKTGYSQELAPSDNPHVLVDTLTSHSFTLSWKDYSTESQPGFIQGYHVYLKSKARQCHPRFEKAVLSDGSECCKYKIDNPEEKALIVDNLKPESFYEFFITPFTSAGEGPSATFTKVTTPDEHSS

B1: B18 monoclonal antibody (antibody, V domains shown)
VH: not shown
VL: DVVMTQSPLSLPVTPGEPASISCRSSQSLLHSNGYNYLDWYMQKPGQSPQVLIYLGSNRASGVPDRFSGSGSGTDFTLKISRVEAEDVGVYYCMQALQTPHTFGQGTTVDIK
notes: also called B18 mAb; B18 antibody clones
B2: B06 monoclonal antibody (antibody, V domains shown)
VH: QVQLVESGGGLVQPGRSLRLSCAASGFTFDDYAMHWVRQAPGKGLEWVSGISWNSGSIGYADSVKGRFTISRDNAKNSLYLQMNSLRAEDTALYYCAKDITSSGWYWFDYWGQGTLVTVSS
VL: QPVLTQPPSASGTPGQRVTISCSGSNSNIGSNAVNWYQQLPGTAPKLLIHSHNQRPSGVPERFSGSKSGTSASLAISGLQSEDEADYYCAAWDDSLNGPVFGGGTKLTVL
notes: also called B06 mAb
B3: B03 monoclonal antibody (antibody, V domains shown)
VH: QVQLVESGGGVVRPGGSLRLSCAASGFTFDDYGMSWVRQAPGKGLEWVSGINWNGGSTGYADSVKGRFTISRDNAKNSLYLQMNSLRAEDTALYHCARVNYDSSGLRGAFDIWGQGTMVIVSS
VL: DIVMTQSPSSLSASVGDRVTITCQASQDISNYLNWYQQKPGKAPKLLIYDASNLETGVPSRFSGSGSGTDFTFTISSLQPEDIATYYCQQYDNLPITFGQGTRLEIK
notes: also called B03 mAb
B4: B04 monoclonal antibody (antibody, V domains shown)
VH: EVQLVQSGGGVVQPGRSLRLSCAASGFTFSSYAMHWVRQAPGKGLEWVAVISYDGSNKYYADSVKGRFTISRDNSKNTLYLQMNSLRAEDTAVYYCARESGVSGDYYYYGMDVWGQGTMVTVSS
VL: AIQLTQSPSSLSASVGDRVTITCQASQDIKNYLNWYQQRPGKAPKLLIYDASNLETGVPSRFSGGGSGTDFTFTISSLQPEDIATYYCQHYDSLPITFGQGTRLEIK
notes: also called B04 mAb
B5: B07 monoclonal antibody (antibody, V domains shown)
VH: QVQLVESGGGVVRPGGSLRLSCAASGFTFDDYGMSWVRQAPGKGLEWVSGINWNGGSTGYADSVKGRFTISRDNAKNSLYLQMNSLRAEDTALYHCARVNYDSSGLRGAFDIWGQGTMVTVSS
VL: NIQMTQSPSSLSASVGDRVTITCQASQYISNSLNWYQQKPGKAPNLLLYDATNLEPGVPSRFSGSGSRTDFTLTISSLQPEDIATYYCQQYHNLPPTFGQGTRLEIK
notes: also called B07 mAb
B6: OSMR on human ovarian cancer cells (HEYA8, OVCAR4, A2780) (receptor, UniProt Q99650 28-979, looked up)
chain: ERLPLTPVSLKVSTNSTRQSLHLQWTVHNLPYHQELKMVFQIQISRIETSNVIWVGNYSTTVKWNQVLHWSWESELPLECATHFVRIKSLVDDAKFPEPNFWSNWSSWEEVSVQDSTGQDILFVFPKDKLVEEGTNVTICYVSRNIQNNVSCYLEGKQIHGEQLDPHVTAFNLNSVPFIRNKGTNIYCEASQGNVSEGMKGIVLFVSKVLEEPKDFSCETEDFKTLHCTWDPGTDTALGWSKQPSQSYTLFESFSGEKKLCTHKNWCNWQITQDSQETYNFTLIAENYLRKRSVNILFNLTHRVYLMNPFSVNFENVNATNAIMTWKVHSIRNNFTYLCQIELHGEGKMMQYNVSIKVNGEYFLSELEPATEYMARVRCADASHFWKWSEWSGQNFTTLEAAPSEAPDVWRIVSLEPGNHTVTLFWKPLSKLHANGKILFYNVVVENLDKPSSSELHSIPAPANSTKLILDRCSYQICVIANNSVGASPASVIVISADPENKEVEEERIAGTEGGFSLSWKPQPGDVIGYVVDWCDHTQDVLGDFQWKNVGPNTTSTVISTDAFRPGVRYDFRIYGLSTKRIACLLEKKTGYSQELAPSDNPHVLVDTLTSHSFTLSWKDYSTESQPGFIQGYHVYLKSKARQCHPRFEKAVLSDGSECCKYKIDNPEEKALIVDNLKPESFYEFFITPFTSAGEGPSATFTKVTTPDEHSSMLIHILLPMVFCVLLIMVMCYLKSQWIKETCYPDIPDPYKSSILSLIKFKENPHLIIMNVSDCIPDAIEVVSKPEGTKIQFLGTRKSLTETELTKPNYLYLLPTEKNHSGPGPCICFENLTYNQAASDSGSCGHVPVSPKAPSMLGLMTSPENVLKALEKNYMNSLGEIPAGETSLNYVSQLASPMFGDKDSLPTNPVEAPHCSEYKMQMAVSLRLALPPPTENSSLSSITLLDPGEHYC
notes: whole, on cells; also called Oncostatin M receptor; OMSR receptors
B7: B02 monoclonal antibody (antibody, V domains shown)
VH: QVELQESGSGLVKPSQTLSLTCAVSGGSISSGGYSWSWIRQPPGKGLEWIGYIYHSGSTYYNPSLKSRVTISVDRSKNQFSLKLSSVTAADTAVYYCARELGYCSSTSCPWGAFDIWGQGTLVSVSS
VL: QAVVTQPPSVSAAPGQKVTISCSGSSSNIGNNYVSWYQQLPGTAPKLLIYDNNKRPSGIPDRFSGSKSGTSATLGITGLQTGDEADYYCGTWDSSLSAVVFGGGTQLTVL
notes: also called B02 mAb

Key:
[1] = target: T1, recombinant OSMR protein (Sino …); experiment: screening of full-length IgG1 clones on recombinant OSMR extracellular domain
[2] = target: T2, cell surface human OSMR protein (as …); experiment: ELISA
[3] = target: the molecule itself; experiment: dimerization assay (cross-linking, immunoprecipitation) after OSM stimulation
Protocol: Dimerization assay: Dimerization assay was performed as mentioned previously (Bublil et al., 2010; Turk and Chapkin, 2015) with some modifications. […] The […] were incubated with non-permeable cross-linking reagent, 3 mM bis (sulphosuccinimidyl) suberate [BS3 (Pierce)], cross-linking reagent on ice for 30 min and subsequently quenched with 250 mM Glycine. The cells were washed with ice cold PBS and cells were lysed using RIPA buffer as mentioned earlier.

Binder	binding result [1]	binding result [2]	binding result [3]
B1	binds	no binding	
B2	binds		
B3	binds		
B4	binds		
B5	binds		
B6			binds
B7	binds		
